B1: Homeobox protein cut-like 1, residues 548 to 629; numbered along this chain, P39880 (parent)
chain: GEEMDTAEIARQVKEQLIKHNIGQRIFGHYVLGLSQGSVSEILARPKPWNKLTVRGKEPFHKMKQFLSDEQNILALRSIQGR

Variants of: B1
Experiment: abundance fitness (aPCA) (normalised: wild type 0, dead -1); higher = more abundant; growth selection in yeast, the domain comes from the species named
Details: Homo sapiens

Abundance fitness: each site, then its substitutions
V13: A -0.415 | T -0.198 | E -0.608 | P -0.564 | K -0.548 | N -0.511 | W -0.721 | S -0.56 | L -0.423 | M -0.263 | H -0.574 | F -0.911 | Y -0.812 | I -0.102 | D -0.486 | Q -0.574 | C -0.238 | G -0.53 | R -0.586
I22: D -0.941 | L -0.239 | M -0.612 | F -0.49 | N -0.701 | P -0.718 | V -0.071 | G -0.86 | S -0.801 | K -0.931 | T -0.687 | Q -0.797 | C -0.491 | Y -0.916
R25: H 0.059 | I -0.122 | A 0.102 | D 0.138 | L -0.192 | N 0.017 | V -0.088 | M -0.079 | W -0.072 | T 0.036 | G 0.082 | F -0.096 | E 0.158 | Y -0.003 | K 0.022 | P -0.068 | Q 0.019 | S 0.078
A10: Q -0.798 | L -0.874 | G -0.552 | W -0.755 | P -0.744 | N -0.692 | Y -0.863 | E -0.822 | T -0.08 | R -0.792 | M -0.947 | I -0.249 | K -0.746 | S -0.151 | D -0.835 | H -1.24 | V 0.032
L17: Q -0.612 | D -0.774 | N -0.696 | Y -0.842 | E -0.613 | M -0.405 | F -0.808 | A -0.724 | I -0.358 | R -0.609 | T -0.518 | P -0.538 | H -0.939 | S -0.635 | V -0.665 | W -0.808 | C -0.493
K19: P -0.763 | G -0.513 | W -0.618 | H 0.029 | N -0.216 | L -0.201 | Y -0.242 | R -0.117 | A -0.171 | Q -0.18 | F -0.187 | E -0.26 | M -0.293 | C -0.363 | D -0.344 | V -0.271 | I -0.244
H29: W -0.102 | L -0.1 | G -0.357 | T -0.022 | R -0.051 | Q 0.038 | K 0.022 | S -0.081 | P -0.621 | F -0.15 | N -0.012 | M -0.052 | D -0.036 | E 0.06 | Y -0.125
F27: R -0.884 | W -0.572 | G -0.894 | C -1.03 | T -0.914 | Y -1.15 | D -0.862 | V -0.815 | S -0.906 | A -1.01 | E -0.906 | P -0.861 | Q -0.747 | L -0.47 | K -0.99 | H -1.14 | M -0.857 | N -0.787 | I -0.8
K14: L -0.401 | A -0.324 | C -0.263 | E -0.282 | T -0.396 | I -0.24 | H 0.1 | N -0.058 | D -0.343 | S 0.565 | R -0.111
H20: L -0.361 | V -0.6 | F -0.029 | S -0.398 | K -0.391 | P -0.677 | R -0.464 | A -0.348 | I -0.601 | E -0.503 | C -0.466 | N -0.178 | G -0.584 | D -0.722 | T -0.608 | W -0.074
G23: R -0.068 | K 0.012 | V -0.196 | A -0.004

— the Human Domainome abundance scans (Beltran et al. 2025)
